Data on 1 substance can be found in US20240383996A1.

A word on the EC50: it is the midpoint of the concentration-response curve.

Test [1] concerns the target Human OX40 expressed on transfected Jurkat or CHO cells (human) (UniProt P43489). Put plainly: flow cytometry, whole cell binding to human OX40-expressing Jurkat cells, Geo MFI. A general note: In flow cytometry, cells or beads pass a laser one at a time.
Test [2] deals with Human CTLA4 expressed on transfected CHO or Jurkat cells (human) (UniProt P16410). Nature of the test: flow cytometry, whole cell binding to human CTLA4-expressing Jurkat cells, Geo MFI.
Chain of Human CTLA4 expressed on transfected CHO or Jurkat cells (human) (P16410 36-222 limits assumed): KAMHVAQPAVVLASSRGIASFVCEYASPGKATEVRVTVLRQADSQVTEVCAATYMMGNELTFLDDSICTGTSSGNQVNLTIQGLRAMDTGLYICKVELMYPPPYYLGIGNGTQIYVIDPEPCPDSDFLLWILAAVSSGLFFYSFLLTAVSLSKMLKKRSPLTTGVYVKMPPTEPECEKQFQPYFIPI

Chain of Human OX40 expressed on transfected Jurkat or CHO cells (human) (P43489 29-277 limits assumed): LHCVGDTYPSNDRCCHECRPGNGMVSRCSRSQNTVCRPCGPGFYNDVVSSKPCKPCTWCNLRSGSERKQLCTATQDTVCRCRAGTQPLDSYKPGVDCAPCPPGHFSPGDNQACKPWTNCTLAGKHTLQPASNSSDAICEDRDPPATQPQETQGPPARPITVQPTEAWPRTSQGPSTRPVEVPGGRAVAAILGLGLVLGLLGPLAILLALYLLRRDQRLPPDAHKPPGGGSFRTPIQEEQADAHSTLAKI

Regarding “ATOR-1015 analog (reference anti-OX40/CTLA4 bispecific antibody synthesized in-house)”, the EC50 in test [1] was determined as 0.0103 µM; in test [2], 0.0374 µM.
